Two molecules from patent US20210009657A1 (THEACHON, published 2021) can be followed below.

In experiment [1] the target is T1, human FGF2 (human, UniProt P09038 143-288).
T1 construct: also called hFGF2; Fibroblast Growth Factor 2
The experiment can be described thus: fixed FGF2 incubated with increasing decoy, unbound FGF2 by ELISA. As for the experimental part: Fixed amounts of human FGF2, or human FGF9 (R&D Systems) were incubated for 2 h at 37° C. with increasing doses of each recombinant protein (0 to 250 ng/ml) in PBS 1% BSA. Specific commercial ELISA kits (R&D Systems; Clinisciences) were used to quantify remaining unbound FGFs. 1000 pg/ml or 1200 pg/ml were used for FGF2 and FGF9 respectively based on the sensitivity of the corresponding ELISA kits.
A general note: ELISA stands for enzyme-linked immunosorbent assay.

The target of experiment [2] is T2, Aggrecan (R&D systems #1220-PG-025) (UniProt P16112 20-675).
T2 construct: Coated on the ELISA plate at 10 ug/mL
Kind of experiment: ELISA, aggrecan coated on plate, detection with anti-FGFR3 antibody. How it is done:
ELISA plate were coated with 10 μg/mL of Aggrecan (R&D systems #1220-PG-025) in a final volume of 50μI per well and incubated overnight at room temperature. Plate were blocked with 300μI of PBS 1% BSA per well during 1 h at room temperature. Different amount of protein (0 to 100 µl ) were incubated for 1 h at room temperature. Specific detection antibody against FGFR3 from an R&D system ELISA kit (#DYC766E) was used to detect recombinant protein fixed to aggrecan as recommended by the manufacturer.

T1 sequence (P09038 143-288 limits assumed): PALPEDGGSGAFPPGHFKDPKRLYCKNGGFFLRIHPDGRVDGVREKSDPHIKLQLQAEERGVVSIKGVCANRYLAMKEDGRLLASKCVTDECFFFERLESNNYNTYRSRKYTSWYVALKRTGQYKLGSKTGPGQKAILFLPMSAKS
T2 sequence (P16112 20-675 limits assumed): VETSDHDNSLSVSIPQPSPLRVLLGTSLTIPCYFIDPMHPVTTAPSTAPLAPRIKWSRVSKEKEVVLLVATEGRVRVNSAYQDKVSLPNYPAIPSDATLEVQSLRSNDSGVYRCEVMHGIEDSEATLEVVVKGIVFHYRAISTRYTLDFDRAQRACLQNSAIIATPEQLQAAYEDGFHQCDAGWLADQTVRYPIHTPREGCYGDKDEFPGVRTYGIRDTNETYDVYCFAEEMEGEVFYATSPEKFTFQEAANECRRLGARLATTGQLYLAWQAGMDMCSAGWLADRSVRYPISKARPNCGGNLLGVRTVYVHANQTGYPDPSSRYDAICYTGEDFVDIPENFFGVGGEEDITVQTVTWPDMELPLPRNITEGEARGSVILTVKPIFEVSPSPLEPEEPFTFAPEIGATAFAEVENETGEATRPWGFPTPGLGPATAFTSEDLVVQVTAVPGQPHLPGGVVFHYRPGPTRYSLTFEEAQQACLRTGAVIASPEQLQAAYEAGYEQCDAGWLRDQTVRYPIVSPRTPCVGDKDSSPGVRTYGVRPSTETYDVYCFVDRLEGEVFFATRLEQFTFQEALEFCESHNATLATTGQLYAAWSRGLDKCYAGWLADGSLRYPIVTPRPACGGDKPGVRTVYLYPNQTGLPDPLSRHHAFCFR

B1: FLAG-sFGFR3_Del4-LK1-LK2 (other)
chain: DYKDDDDKLVDQIPAMGAPACALALCVAVAIVAGASSESLGTEQRVVGRAAEVPGPEPGQQEQLVFGSGDAVELSCPPPGGGPMGPTVWVKDGTGLVPSERVLVGPQRLQVLNASHEDSGAYSCRQRLTQRVLCHFSVRVTDAPSSGDDEDGEDEAEDTGVDTGAPYWTRPERMDKKLLAVPAANTVRFRCPAAGNPTPSISWLKNGREFRGEHRIGGIKLRHQQWSLVMESVVPSDRGNYTCVVENKFGSIRQTYTLDVLERSPHRPILQAGLPANQTAVLGSDVEFHCKVYSDAQPHIQWLKHVEVNGSKVGPDGTPYVTVLKVSLESNASMSSNTSGSGSGSGSGSGSGSVVFPYFPRLGRYNLNFHEAQQACLDQDAVIASFDQLYDAWRGGLDWCNAGWLSDGSVQYPITKPREPCGGQNTVPGVRNYGFWDKDKSRYDVFCFTSNFNGRFYYLIHPTKLTYDEAVQACLNDGAQIAKVGQIFAAWKILGYDRCDAGWLADGSVRYPISRPRRRCSPTEAAVRFVGFPDKKHKLYGVYCFRAYN
notes: Fusion of a soluble FGFR3 fragment with the LK1 and LK2 link domains of human HPLN1; Made in HEK 293 cells; also called FP; fusion protein
B1: the binding result in experiment [1] is “binds”.

B2: FLAG-sFGFR3_Del4 (receptor)
chain: DYKDDDDKMGAPACALALCVAVAIVAGASSESLGTEQRVVGRAAEVPGPEPGQQEQLVFGSGDAVELSCPPPGGGPMGPTVWVKDGTGLVPSERVLVGPQRLQVLNASHEDSGAYSCRQRLTQRVLCHFSVRVTDAPSSGDDEDGEDEAEDTGVDTGAPYWTRPERMDKKLLAVPAANTVRFRCPAAGNPTPSISWLKNGREFRGEHRIGGIKLRHQQWSLVMESVVPSDRGNYTCVVENKFGSIRQTYTLDVLERSPHRPILQAGLPANQTAVLGSDVEFHCKVYSDAQPHIQWLKHVEVNGSKVGPDGTPYVTVLKVSLESNASMSSNT
notes: Obtained by site directed mutagenesis of sFGFR3-pFLAG-CMV3 and made in HEK 293 cells; also called Del4 variant
With B2, in experiment [2], the binding result is reported as “no binding”.
